The values that follow come from patent publication US6881547B1, “Methods and reagents for treating autoimmune disorders” (priority 2001, dated 2005).

The target in one data set is T1, GPBP (Homo sapiens, UniProt Q9Y5P4).
T1 construct: made in house; host or cells: Pichia pastoris GS115
T1 sequence (Q9Y5P4 1-624): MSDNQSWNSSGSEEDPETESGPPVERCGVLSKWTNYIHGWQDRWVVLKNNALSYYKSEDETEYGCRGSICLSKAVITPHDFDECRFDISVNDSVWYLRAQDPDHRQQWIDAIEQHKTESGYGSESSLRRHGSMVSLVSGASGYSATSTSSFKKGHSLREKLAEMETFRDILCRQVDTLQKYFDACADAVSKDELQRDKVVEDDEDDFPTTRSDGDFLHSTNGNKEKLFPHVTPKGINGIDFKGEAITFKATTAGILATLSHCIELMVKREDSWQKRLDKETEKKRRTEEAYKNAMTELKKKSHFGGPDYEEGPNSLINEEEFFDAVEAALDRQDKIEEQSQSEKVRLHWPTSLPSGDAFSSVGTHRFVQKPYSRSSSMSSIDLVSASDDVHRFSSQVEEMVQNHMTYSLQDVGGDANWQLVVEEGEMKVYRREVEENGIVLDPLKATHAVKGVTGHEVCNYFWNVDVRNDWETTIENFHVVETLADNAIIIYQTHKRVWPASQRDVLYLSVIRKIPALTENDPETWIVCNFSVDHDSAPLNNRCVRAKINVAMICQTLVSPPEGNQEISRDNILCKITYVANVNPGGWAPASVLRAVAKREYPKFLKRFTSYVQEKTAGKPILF
The data set is described as follows: in vitro GPBP autophosphorylation in the presence of GPΔIII-derived peptide. In kind it is biochemical. The note with it: about 200 ng rGPBP, 150 μM ATP, 5 nmol peptide. The procedure: FIG. 20. Regulation of the GPBP by the C terminal region of GPΔIII. About 200 ng of RGPBP were in vitro phosphorylated with 150 μM ATP in the absence (lane 1) or in the presence of 5 nmol of GPΔIII-derived peptide synthesized either using Boc-(lane 2) or Fmoc-(lane 3) chemistry. The reaction mixtures were subjected to SDS-PAGE, transferred to PVDF and autoradiographed to assess autophosphorylation, and subsequently blotted with anti-FLAG monoclonal antibodies (Sigma) to determine the amount of recombinant material present (Western).
In vitro phosphorylation assays-About 200 ng of rGPBP were incubated overnight at 30° C. in 25 mM P-glycerolphosphate (pH 7.0), 0.5 mM EDTA, 0.5 mM EGTA, 8 mM MgCl2, 5 mM MnCl2, 1 mM DTT and 0.132 μM γ-^32P-ATP, in the presence or absence of 0.5-1 μg of protein substrates or 10 nmoles of synthetic peptides, in a total volume of 50 μl.
(§1) Phosphorylation studies. Phosphorylation studies were essentially done as described above (see also 3 and 11). In some experiments, the substrates were in-blot renatured and then, phosphorylated for 30 min at room temperature by overlaying 100 μl of phosphorylation buffer containing 0.5 μg of RGPBP. Digestion with V8 endopeptidase and immunoprecipitation were performed as described in (3).

The target in data set [1] is T2, PKA (Bos taurus, UniProt P00517). The data set is described as follows: PKA phosphorylation of native GP antigen (α3(IV)NC1 monomer or hexamer) in the presence of C-terminal peptides. Conditions: for induction of GP antigen phosphorylation by PKA (22 kDa conformer of α3(IV)NC1): 0.1 μM ATP, 10 nmol peptide. The data set is classed as biochemical. The procedure:
FIG. 16. Phosphorylation of GP alternative splicing products by PKA. In left panel, equimolecular amounts of rGP (lanes 1), rGPΔV (lanes 2), rGPΔIII (lanes 3) or rGPΔIII/IV/V (lanes 4), equivalent to 500 ng of the GP were phosphorylated at the indicated ATP concentrations. One-fifth of the total phosphorylation reaction mixture was separated by gel electrophoresis and transferred to PVDF, autoradiographed (shown) and the proteins blotted with M3/1, a specific monoclonal antibody recognizing all four species (shown) or using antibodies specific for each individual C-terminal region (not shown). […] Right panel: purified α3(IV)NC1 domain or hexamer was phosphorylated with PKA and 0.1 μM ATP in the absence (lanes 1) or in the presence of 10 nmol of peptides representing the C-terminal region of either GPΔIII (lanes 2) or GPΔIII/IV/V (lanes 3). Where indicated the phosphorylation mixtures of purified α3(IV)NC1 domain were V8 digested and immunoprecipitated with antibodies specific for the N terminus of the human α3(IV)NC1 domain (3). Bars and numbers indicate the position and sizes (kDa) of the molecular weight markers.
as §1
Regulation of the phosphorylation of the human GP antigen by alternative splicing. We produced bacterial recombinant proteins representing the primary antigen (GP) or the individual alternative products GPΔV (SEQ ID NO:46), GPΔIII (SEQ ID NO:48) and GPΔIII/IV/V (SEQ ID NO:50), and we tested their ability to be phosphorylated by PKA (FIG. 16, left panel). […] Accordingly, the differences observed in phosphorylation for the full polypeptides also existed among the individual N-terminal regions, as determined after specific V8 digestion and immunoprecipitation (not shown). […]

Data set [2] concerns the target T2, PKA. Description: in vitro phosphorylation of the synthetic peptides by PKA. The note with it: not shown. The data set is classed as biochemical.
The next data set deals with T3, GPpep1.
T3 chain: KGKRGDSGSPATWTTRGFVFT

Data set [3] has as its target T4, native bovine α3(IV)NC1 domain (bovine GP antigen), Q28084.
T4 chain: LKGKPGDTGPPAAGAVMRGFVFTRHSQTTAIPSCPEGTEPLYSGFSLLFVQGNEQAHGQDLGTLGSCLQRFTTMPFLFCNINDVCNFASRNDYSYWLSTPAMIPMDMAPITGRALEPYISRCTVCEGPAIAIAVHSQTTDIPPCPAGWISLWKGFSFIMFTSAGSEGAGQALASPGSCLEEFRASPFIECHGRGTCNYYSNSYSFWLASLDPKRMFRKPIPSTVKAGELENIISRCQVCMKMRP

In data set [4] the target is T5, prokaryotic human recombinant α3(IV)NC1.
T5 chain: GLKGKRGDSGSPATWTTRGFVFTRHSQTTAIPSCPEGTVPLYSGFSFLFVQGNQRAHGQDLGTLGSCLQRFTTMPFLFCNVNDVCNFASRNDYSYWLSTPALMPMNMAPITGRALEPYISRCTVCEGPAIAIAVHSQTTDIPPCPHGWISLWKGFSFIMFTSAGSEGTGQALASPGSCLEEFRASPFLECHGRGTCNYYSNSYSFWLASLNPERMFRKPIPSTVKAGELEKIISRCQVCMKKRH

Data set [5] deals with the molecule itself. Description: gel filtration HPLC and analytical centrifugation. How it is done: FIG. 11. rGPBP and rGPBPΔ26 form very active high molecular weight aggregates. About 300 μg of rGPBP (A) or rGPBPΔ26 (B) were subjected to gel filtration HPLC as described under Material and Methods. Vertical arrowheads and numbers respectively indicate the elution profile and molecular mass (kDa) of the molecular weight standards used. Larger aggregates eluted in the void volume (I), and the bulk of the material present in the samples eluted in the fractionation range of the column as a second peak between the 669 and 158 kDa markers (II). Fifteen microliters of the indicated minute fractions were subjected to SDS-PAGE and Coomasie blue staining. Five microliters of the same fractions were in vitro phosphorylated as described in Materials and Methods, and the reaction stopped by boiling in SDS sample buffer. The fractions were loaded onto SDS-PAGE, transferred to PVDF and autoradiographed for 1 or 2 hours using Kodak X-Omat films and blotted using anti-FLAG monoclonal antibodies (Sigma).
Northern hybridization studies Pre-made human multiple-tissue and tumor cell-line Northern Blots (CLONTECH) were probed with a cDNA containing the 78-bp exon present only in GPBP or with a cDNA representing both isoforms. […] The material was eluted from the column at 0.5 ml/min, monitored at 220 nm and minute fractions collected. […]
On the technique in general: In gel filtration, larger molecules generally elute earlier.

With QRAHGQDLDALFVKVLRSP [Boc-based peptide], the “effect on GPBP autophosphorylation” value in the data set with GPBP is “positively influenced GPBP autophosphorylation”. In addition, in the data set with PKA [1] (long storage at low temperatures), the “retention of ability to induce PKA on storage” value is recorded as “loses its ability to induce PKA”. Moreover, the “in vitro substrate of PKA” value with PKA [2] is “in vitro substrates of PKA”.
For “QRAHGQDLESLFHQL [SEQ ID NO:44, synthetic peptide representing the C-terminal region of GPΔIII/IV/V]”, in the data set with PKA [1], the “induction of GP antigen phosphorylation by PKA (22 kDa conformer of α3(IV)NC1)” value was “induced the phosphorylation of a single polypeptide”.
Still for that read-out and setting: the entry for “QRAHGQDLDALFVKVLRSP [SEQ ID NO: 43, synthetic peptide representing the C-terminal region of GPΔIII]” is “induced the phosphorylation of a single polypeptide”.
Consider “QRAHGQDLDALFVKVLRSP [Fmoc-based peptide]”, for which the “effect on GPBP autophosphorylation” value with GPBP is given as “inhibited GPBP autophosphorylation”. In the data set with PKA [2], the “in vitro substrate of PKA” value is given as “not”.

B1: FLAG-tagged recombinant GPBPΔ26 (rGPBPΔ26) (enzyme)
chain: DYKDDDDKMSDNQSWNSSGSEEDPETESGPPVERCGVLSKWTNYIHGWQDRWVVLKNNALSYYKSEDETEYGCRGSICLSKAVITPHDFDECRFDISVNDSVWYLRAQDPDHRQQWIDAIEQHKTESGYGSESSLRRHGSMVSLVSGASGYSATSTSSFKKGHSLREKLAEMETFRDILCRQVDTLQKYFDACADAVSKDELQRDKVVEDDEDDFPTTRSDGDFLHSTNGNKEKLFPHVTPKGINGIDFKGEAITFKATTAGILATLSHCIELMVKREDSWQKRLDKETEKKRRTEEAYKNAMTELKKKSHFGGPDYEEGPNSLINEEEFFDAVEAALDRQDKIEEQSQSEKVRLHWPTSLPSGDAFSSVGTHRFVQKVEEMVQNHMTYSLQDVGGDANWQLVVEEGEMKVYRREVEENGIVLDPLKATHAVKGVTGHEVCNYFWNVDVRNDWETTIENFHVVETLADNAIIIYQTHKRVWPASQRDVLYLSVIRKIPALTENDPETWIVCNFSVDHDSAPLNNRCVRAKINVAMICQTLVSPPEGNQEISRDNILCKITYVANVNPGGWAPASVLRAVAKREYPKFLKRFTSYVQEKTAGKPILF
notes: From plasmid pHIL-FLAG-n4′Δ26, expressed in Pichia pastoris
Consider B1, for which the “trans-phosphorylation activity with 5 nmol GPpep1” value with GPpep1 is “the reduced in-solution auto- and trans-phosphorylation activities displayed by rGPBPΔ26”. Further, the “conformers and oligomers after DTT consumption, Western blot” value in data set [3] is listed as “Essentially the same results were obtained when blotting the samples that contained GPBPΔ26”. In addition, the “disruption of disulfide-based aggregates, Western blot” value in data set [4] is given as “GPBP and, to a lesser extent GPBPΔ26 disrupted disulfide-based high molecular weight aggregates characteristic of recombinant material representing human α3(IV)NC1 produced in bacteria”. Also, the binding result in data set [5] is reported as “binds”.

B2: FLAG-tagged recombinant GPBP (rGPBP) (enzyme)
chain: DYKDDDDKMSDNQSWNSSGSEEDPETESGPPVERCGVLSKWTNYIHGWQDRWVVLKNNALSYYKSEDETEYGCRGSICLSKAVITPHDFDECRFDISVNDSVWYLRAQDPDHRQQWIDAIEQHKTESGYGSESSLRRHGSMVSLVSGASGYSATSTSSFKKGHSLREKLAEMETFRDILCRQVDTLQKYFDACADAVSKDELQRDKVVEDDEDDFPTTRSDGDFLHSTNGNKEKLFPHVTPKGINGIDFKGEAITFKATTAGILATLSHCIELMVKREDSWQKRLDKETEKKRRTEEAYKNAMTELKKKSHFGGPDYEEGPNSLINEEEFFDAVEAALDRQDKIEEQSQSEKVRLHWPTSLPSGDAFSSVGTHRFVQKPYSRSSSMSSIDLVSASDDVHRFSSQVEEMVQNHMTYSLQDVGGDANWQLVVEEGEMKVYRREVEENGIVLDPLKATHAVKGVTGHEVCNYFWNVDVRNDWETTIENFHVVETLADNAIIIYQTHKRVWPASQRDVLYLSVIRKIPALTENDPETWIVCNFSVDHDSAPLNNRCVRAKINVAMICQTLVSPPEGNQEISRDNILCKITYVANVNPGGWAPASVLRAVAKREYPKFLKRFTSYVQEKTAGKPILF
modifications: phosphoserine, phosphothreonine and phosphotyrosine present, sites not given
notes: Made in Pichia pastoris or 293 cells; also called FLAG-n4′
For B2, the binding result in data set [5] was “binds”.
